The values that follow come from publication PMC6910952 (Nature Communications, 2019).

What all share (assay): fluorescence polarisation; fluorescence anisotropy; 1 nM FlAsH-labeled His6-SUMO-yUfd1 peptide, His6-yNpl4^113–580 in two-fold dilution series; 25 °C; 50 mM Tris-HCl pH 8.0, 100 mM NaCl, 5 mM β-mercaptoethanol, 0.1 g/L BSA
Conditions in all cases: both partners purified

The target of experiment [1] is T1, His6-yNpl4^113–580 M357A (Saccharomyces cerevisiae, UniProt P33755 113-580, M357A).
T1 construct: also called yNpl4 M357A; source: E. coli Rosetta (DE3), purified (Ni-NTA, Resource Q); not shown: His6, N-terminal, kept
T1 sequence (looked up): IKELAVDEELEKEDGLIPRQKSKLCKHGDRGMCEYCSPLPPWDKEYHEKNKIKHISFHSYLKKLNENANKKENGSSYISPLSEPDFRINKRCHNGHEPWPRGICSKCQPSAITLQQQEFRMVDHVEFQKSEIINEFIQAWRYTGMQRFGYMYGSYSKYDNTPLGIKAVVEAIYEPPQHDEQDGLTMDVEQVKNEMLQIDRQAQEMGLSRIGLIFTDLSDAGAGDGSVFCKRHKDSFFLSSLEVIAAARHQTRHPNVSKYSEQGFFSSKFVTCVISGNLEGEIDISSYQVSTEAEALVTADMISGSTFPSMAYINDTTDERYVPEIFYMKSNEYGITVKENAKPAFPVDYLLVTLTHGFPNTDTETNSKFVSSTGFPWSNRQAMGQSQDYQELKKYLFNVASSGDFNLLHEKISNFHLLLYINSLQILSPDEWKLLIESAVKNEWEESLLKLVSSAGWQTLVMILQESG

In experiment [2] the target is T2, His6-yNpl4^113–580 F326A (Saccharomyces cerevisiae, UniProt P33755 113-580, F326A).
T2 construct: also called yNpl4 F326A; source: E. coli Rosetta (DE3), purified (Ni-NTA, Resource Q); not shown: His6, N-terminal, kept
T2 sequence (looked up): T1 sequence (looked up) with F214A, A245M

The target in experiment [3] is T3, His6-yNpl4^113–580 R364A (Saccharomyces cerevisiae, UniProt P33755 113-580, R364A).
T3 construct: also called yNpl4 R364A; source: E. coli Rosetta (DE3), purified (Ni-NTA, Resource Q); not shown: His6, N-terminal, kept
T3 sequence (looked up): T1 sequence (looked up) with A245M, R252A

For experiment [4], the target named is T4, His6-yNpl4^113–580 L353A (Saccharomyces cerevisiae, UniProt P33755 113-580, L353A).
T4 construct: also called yNpl4 L353A; source: E. coli Rosetta (DE3), purified (Ni-NTA, Resource Q); not shown: His6, N-terminal, kept
T4 sequence (looked up): T1 sequence (looked up) with L241A, A245M

Changes are numbered by the printed parent chain. No end group written: not given here.

B1: FlAsH-labeled His6-SUMO-yUfd1^288–305-GWCCPGCC (peptide, UniProt P53044 288-305, looked up)
chain: {His6-SUMO}-EPAKLDLPEGQLFFGFPMGWCCPGCC
modifications: cysteine pairing not given here; also: FlAsH label bound to CCPGCC motif
notes: the assay methods print 280-305; also called yUfd1-FlAsH; yUfd1 WT; source: E. coli Rosetta (DE3) (pCold-SUMO), purified (Ni-NTA, Resource Q), labeled with FlAsH-EDT2; not shown: His6, N-terminal, kept; SUMO, N-terminal, kept
As usually defined, the Kd is the equilibrium constant for the complex coming apart. Lower therefore signals higher affinity. As for B1, the Kd in experiment [1] was 164 nM; in experiment [2], 257 nM; in experiment [3], 314 nM; in experiment [4] it was 1380 nM.
